Experimental data published in patent US8663912B2, “Fluorogenic substrate for ADAMTS13” (Washington University, priority 2011, dated 2014).

Target: T1, ADAMTS13 (Homo sapiens, UniProt Q76LX8)
T1 sequence (Q76LX8 75-1427): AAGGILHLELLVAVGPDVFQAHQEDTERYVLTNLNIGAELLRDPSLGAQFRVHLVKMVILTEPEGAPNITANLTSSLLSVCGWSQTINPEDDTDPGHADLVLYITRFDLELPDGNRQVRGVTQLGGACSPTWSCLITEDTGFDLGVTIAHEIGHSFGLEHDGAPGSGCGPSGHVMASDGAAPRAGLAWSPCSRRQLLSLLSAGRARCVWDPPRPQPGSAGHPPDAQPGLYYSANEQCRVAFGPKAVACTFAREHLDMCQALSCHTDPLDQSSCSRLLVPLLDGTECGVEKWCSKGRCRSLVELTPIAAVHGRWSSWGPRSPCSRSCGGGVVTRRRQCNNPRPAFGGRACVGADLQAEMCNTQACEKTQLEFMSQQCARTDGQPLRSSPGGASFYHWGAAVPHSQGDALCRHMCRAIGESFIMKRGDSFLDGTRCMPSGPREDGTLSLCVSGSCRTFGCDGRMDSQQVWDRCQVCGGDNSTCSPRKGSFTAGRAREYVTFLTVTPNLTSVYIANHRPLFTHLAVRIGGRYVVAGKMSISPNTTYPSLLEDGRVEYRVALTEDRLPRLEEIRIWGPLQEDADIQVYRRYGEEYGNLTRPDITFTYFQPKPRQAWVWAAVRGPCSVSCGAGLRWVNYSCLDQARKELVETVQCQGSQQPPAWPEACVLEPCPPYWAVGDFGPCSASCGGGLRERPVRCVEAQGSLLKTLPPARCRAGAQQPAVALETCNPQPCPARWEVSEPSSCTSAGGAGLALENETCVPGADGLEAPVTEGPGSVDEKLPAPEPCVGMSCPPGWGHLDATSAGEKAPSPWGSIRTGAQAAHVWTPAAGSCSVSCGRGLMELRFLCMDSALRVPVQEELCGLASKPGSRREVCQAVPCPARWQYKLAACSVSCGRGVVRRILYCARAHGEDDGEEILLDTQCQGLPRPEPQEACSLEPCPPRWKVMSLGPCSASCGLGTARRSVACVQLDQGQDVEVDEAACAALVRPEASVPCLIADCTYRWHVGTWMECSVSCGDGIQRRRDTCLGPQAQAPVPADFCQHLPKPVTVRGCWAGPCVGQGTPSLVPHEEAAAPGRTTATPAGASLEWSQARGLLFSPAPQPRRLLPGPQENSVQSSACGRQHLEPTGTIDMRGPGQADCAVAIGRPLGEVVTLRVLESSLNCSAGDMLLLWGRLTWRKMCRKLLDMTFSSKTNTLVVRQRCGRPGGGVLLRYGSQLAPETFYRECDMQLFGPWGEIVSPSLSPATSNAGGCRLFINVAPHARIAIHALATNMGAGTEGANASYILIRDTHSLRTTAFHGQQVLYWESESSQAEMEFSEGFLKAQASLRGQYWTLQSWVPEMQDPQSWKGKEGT
Assay: Effect of bilirubin and hemoglobin on FRETS-rVWF71 ADAMTS13 assays
Format: biochemical
Design: FRETS-rVWF71 cleavage by plasma ADAMTS13 (50 μL) was assessed in 200 μL reactions; from tissue; host or cells: human plasma or serum (pooled normal plasma, healthy donors, TTP patients)

IC50 for inhibition of ADAMTS13 activity (FRETS-rVWF71 substrate): 10-15 g/L | effect on detection of FRETS-rVWF71 cleavage products (hemoglobin ≦20 g/L): did not affect
Substance: hemoglobin
